# Reference: the DeepSol protein solubility set
# Assay: soluble on expression in E. coli; label from the status in PepcDB or PDB records
row,Sequence,soluble on expression in E. coli
1,MKTFPLQSLTLAEAQQKQFALVDTICRHFPGSEFLAGGDLGLTPSLNQPRITQRVEQVLADAFHAQAAALVQGAGTGAIRAGLAALLKPGQRLLVHDAPVYPTTRVIIEQMGLTLITADFNDLSALKQVVDEQQPDAALVQHTRQQPQDSYVLADVLATLRAAGVPALTDDNYAVMKVARIGCECGANVSTFSCFKLFGPEGVGAVVGDADVISRIRATLYSGGSQIQGSQALEVLRGLVFAPLIHAVKAGVSERLLALLNGGAVAEVKSAVIANAQSKVLIVEFHQLIAARVLEEAQKRGALPYPVGAESKYEIPPLFYRLSGTFRQANPQLEHCAIRINPNRSGEETVLRILRESIASI,not soluble
2,MKTFTVQFHREDDVEAMNVGKLSQEDFDKATEGGTRHLFDLDTNIGYFVFFDAEDNEGKVSYLMLQYEEDNEDPSACYSFELKDFYEFMALYLNDLEFAEEEEMAEDGEEEYGPIHHLAHLLYHIVEKGKTVEV,not soluble
3,MKTIHIYTNGRFEEKQSGIVREFPLVLHVNGREIATLISSPHDLRFLVAGFLRNQGFVERAEDFHMLAVCDDFGIANARIRGELPERLKPVLTSGCGTGVTFTLETPKIPPPLALPAITTDAVFRLMEELARRADNYRSHGGIHSAAVGDGEGNLLLFAEDIGRHNTLDRIAGEALFKGIDLAGTILVTSGRVSTEMAAKCARLGIALIASRTSATDMAVKMCDEAGIPLIGYVRGGKFTVYAHHERLAMAPPVGAIHELPLPASAQGRRIPGITGVILAGGQSRRMGSNKALLPYKGGRFIEAIHRQLAEIFDEVLLVTNNPEQYDFLPCRKVADIHPGMGALAGIHAGLHHAANPAAFMVACDMPYLNSDLIRHLATLADPGGVLIPESPAGLEPLHAVYGKGCLAAIETTLLSGERRIVSFFGRTNVNRVNAEQVALFDPDYATFSNINTPVDYYRLRDGERDELDAALGADRIAGLEHHHHHH,not soluble
4,MKTKIIGVLGLGIFGQTLAQELSNFEQDVIAIDSNPENVQAVAEVVTKAAIGDITDLAFLKHIGISDCDTVIIATGNSLESSVLAVMHCKKLGVPQVIAKARNLVYEEVLYEIGADLVISPERESGQNVAANLMRNKITDVFQIESDISVIEFKIPKSWVGKTVEQLNIRHKFDLNLIGIRKAKNKPVDTEVPINSPLEEGIILVAIANSDAFQRYDYLGYFNLEHHHHHH,soluble
5,MKTLEKRMKALDKRIMKFGKSLEGRLDARLIESALDYIHYSERFLAFEILCTYIEDFDVRLTEQESREISFINKEFEIESTSD,not soluble
6,MKTLFLQYPACSTCQKAKKWLIENNIEYTNRLIVDDNPTVEELKAWIPLSGLPVKKFFNTSGVVYKELKLSSKLPTMTEEEQIALLATNGKLVKRPLVVTERFVLVGFKPEEWEKL,not soluble
7,MKTMRKILEIDEERCNGCGLCVLDCAEGAIAIVDGKAKIVSDSFCDGLGACIGSCPQDALHIIEREAVPFDEEAAMEHVRSQGGTPEANHGHGHGAGTPHRHGQSAEHGGHGRIPGHGGCPGAAMRRFDSAESPAFAVAEGTVKGPGHWPLKIRLVPPTAPFLKGADVLVAADCAAAASPIFHSHFAAGKVVLIGCPKFDDTEAYAERLADILRVSGIASLTVLRMEVPCCRGLSAAAEKARVLSGTSLVLKEVIMTCAGGPAAPAPLSSL,soluble
8,MKTVGVVLSGCGVLDGAEIHESVLTMLALDRAGAEVLFFAPDKPQLHVINHITGEIVAEERNVLVESARIARGLITPLSAADPEVLDALIVPGGFGAAKNLCDFAIKGGECSVEPDLYKLIQLMHKSGKPIGLMCISPVMLPKLLGKPIRLTIGNDPDTIDAIEIMGGEHVICPADDVVIDLENKVVTTPAYMLAGSISEAAKGIDKLVTKVLDLTE,not soluble
9,MKTVPPVHRIALLFNGSKIYDRGIISGIGNYLSSTRVSWDLFLEEDFLCRLKGIERWQGDGIIADFDDPLIGEALAGIRLPVVAVGGSYQDERAYPKGIPYVATDNHALIKAAYEHLIEAGLTRFACFSLPEAQANRWAQEREKAFRHLLQRDGLHAEVYRGLGTSAPLWDSAVEQQITWLQSLPKPIGIIAVTDARARQLLQACLTAGIAVPEQVALIGIDNDPLTRTLTRVPLSSVIQGTETMGRTAARLLHQLLHGMPSSGTHILIPPDAVNVQASSLHQPLGDPYVMQALLFIRQYACQGIKTAQVAAYVGVSRSALESHFRRVRGCSVHDEILRFKLAAAAHGLENTDSAIADIARDCGFRSAQYLHTVFRREFGCTPREYLQGANAALQ,not soluble
10,MKTYEVGALLEAANQRDTKKVKEILQDTTYQVDEVDTEGNTPLNIAVHNNDIEIAKALIDRGADINLQNSISDSPYLYAGAQGRTEILAYMLKHATPDLNKHNRYGGNALIPAAEKGHIDNVKLLLEDGREDIDFQNDFGYTALIEAVGLREGNQLYQDIVKLLMENGADQSIKDNSGRTAMDYANQKGYTEISKILAQYN,soluble
11,MKVAIVHNSEEKSKQVTKQLTTLLEQNQIQIDNRQPELVISVGGDGTLLSAFHRFNHLLNEVSFLGVHTGHLGFYTDWRDYELKELVESLCIHREKSTSYPLLDVRIRFRDGKPDKHFLALNESTIKRGNRTMVGDVFIKDELFERFRGDGLSISTPTGSTAYNKSIGGAVLHPSINAFQLTEIASLNNRVFRTLGSPIVIAHTEWLEIKLQESDDYFVTVDQLDIYQENIASVCYRIADERIHFASYRHMHFWHRVKDAFIGEDLEHHHHHH,soluble
12,MKVEEILEKALELVIPDEEEVRKGREAEEELRRRLDELGVEYVFVGSYARNTWLKGSLEIDVFLLFPEEFSKEELRERGLEIGKAVLDSYEIRYAEHPYVHGVVKGVEVDVVPCYKLKEPKNIKSAVDRTPFHHKWLEGRIKGKENEVRLLKGFLKANGIYGAEYKVRGFSGYLCELLIVFYGSFLETVKNARRWTRRTVIDVAKGEVRKGEEFFVVDPVDEKRNVAANLSLDNLARFVHLCREFMEAPSLGFFKPKHPLEIEPERLRKIVEERGTAVFAVKFRKPDIVDDNLYPQLERASRKIFEFLERENFMPLRSAFKASEEFCYLLFECQIKEISRVFRRMGPQFEDERNVKKFLSRNRAFRPFIENGRWWAFEMRKFTTPEEGVRSYASTHWHTLGKNVGESIREYFEIISGEKLFKEPVTAELCEMMGVKD,soluble
13,MKVELVFIPSPGVGHIRATTALAKLLVASDNRLSVTLIVIPSRVSDDASSSVYTNSEDRLRYILLPARDQTTDLVSYIDSQKPQVRAVVSKVAGDVSTRSDSRLAGIVVDMFCTSMIDIADEFNLSAYIFYTSNASYLGLQFHVQSLYDEKELDVSEFKDTEMKFDVPTLTQPFPAKCLPSVMLNKKWFPYVLGRARSFRATKGILVNSVADMEPQALSFFSGGNGNTNIPPVYAVGPIMDLESSGDEEKRKEILHWLKEQPTKSVVFLCFGSMGGFSEEQAREIAVALERSGHRFLWSLRRASPVGNKSNPPPGEFTNLEEILPKGFLDRTVEIGKIISWAPQVDVLNSPAIGAFVTHCGWNSILESLWFGVPMAAWPIYAEQQFNAFHMVDELGLAAEVKKEYRRDFLVEEPEIVTADEIERGIKCAMEQDSKMRKRVMEMKDKLHVALVDGGSSNCALKKFVQDVVDNVP,soluble
14,MKVETCVYSGYKIHPGHGKRLVRTDGKVQIFLSGKALKGAKLRRNPRDIRWTVLYRIKNKKGTHGQEQVTRKKTKKSVQVVNRAVAGLSLDAILAKRNQTEDFRRQQREQAAKIAKDANKAVRAAKAAANKEKKASQPKTQQKTAKNVKTAAPRVGGKR,not soluble
15,MKVGVVGLQGDVSEHIEATKMAIEKLELPGEVIWLKRPEQLKGVDAVIIPGGESTTISRLMQRTGLFEPIKKMVEDGLPVMGTCAGLIMLAKEVLGATPEQKFLEVLDVKVNRNAYGRQVDSFEAPVKLAFDDEPFIGVFIRAPRIVELLSEKVKPLAWLEDRVVGVEQENIIGLEFHPELTNDTRIHEYFLRKVI,soluble
16,MKVIAVNGGPRKQWNTATLLHKALEGAQSAGAETDLFHLYDLNYKGCISCFGCKRKNSSRIGHCVLKDELTPLLEEVLKCDALLLGSPIYFGNVTGAMRSFLERLFFSLLSYNEGQRTVFPRKVASGFIYTMNVPEDFLPQLGYEAVFKANARSLELLNGPSEYLLATDTYQFDNYSNYEASRFNEQHKAQVRQERFPQDCRQAFDLGAR,not soluble
17,MKVIIDGEVRTLKAAWYEDGEVKLIDQRELPDKIKIFSAKNSDDIAYAIKNMVVRGAPAIGVTAAYGLAMASKNGEDMNKAKEKIRATRPTAYDLFKAIRYMEVNGYDMNAARRYAMEIEGRSKKIGELGNELIRNGAKILTHCNAGALAVLDWGTALSPMRIAHNEGKNIFVFVDETRPRLQGAKLTAWELAQEGIDHAIIADNAAGFYMRRKEIDLVIVGADRIASNGDFANKIGTYEKAVLAKVNGIPFYVAAPGSTFDFSIRSGDEIPIEERDENEVLEINGIRIGPNESHSKNPAFDVTPNEYVTGFITEYGIFKPNELNKLKDLMDKDLFMNIK,not soluble
18,MKVKNNAQLLMPREKMLKFGISALTDVELLALFLRTGTRGKDVLTLAKEMLENFGSLYGLLTSEYEQFSGVHGIGVAKFAQLKGIAELARRYYNVRMREESPLLSPEMTREFLQSQLTGEEREIFMVIFLDSQHRVITHSRLFSGTLNHVEVHPREIIREAIKINASALILAHNHPSGCAEPSKADKLITERIIKSCQFMDLRVLDHIVIGRGEYVSFAERGWI,not soluble
19,MKVKTQFVCNQCAAIFKQWAGQCTQCGAWNSIVEEGIMPENKTLRSGQWANQRSVITAVEDVVMDKIVRMDCGISELNRVLGGGLVYGSVVLIGGDPGIGKSTLLLQTLANLSMQETVLYVTGEESLQQVAMRAQRLGLPLAGLRLLAETQVESIIAQAQKEKPRIIVVDSVQTIFTEAISSAPGGVSQVRESAAQLVRYAKMTNTAIFLVGHVTKEGTLAGPRVLEHMVDSVLYFEGQNDSRFRVIRAIKNRFGAVNELGVFAMTDKGLKEVANPSAIFLSRQPEPTPGSAVMVTWEGSRPMLVEVQALVDEAHGQQAKRVTAGLEHNRLAILLAVLHRHGGIATYDQDVFINVVGGVKVTETASDLALLAAVISSLRNRIFDSETIIFGEVGLAGEIRPVQSGQERIKEAIKHGFKRAIVPFANAPKQQIDSMTVEPVKHLRDVLEKM,not soluble
20,MKVRAQVPTVKNATNFNMVADSKTAVGSTLENLKAAIAGETGAHAKYTAFAKAAREQGYEQIARLFEATAAAELIHIGLEYALVAEMEPGYEKPTVAAPSAYSCDLNLISGANGEIYETSDMYPAFIRKAQEEGNSKAVHVFTRAKLAESVHAERYLAAYNDIDAPDDDKFHLCPICGYIHKGEDFEKCPICFRPKDTFTAY,soluble
21,MKVTPINDYKDIHQDKETVLVLGYFDALHRGHKVLFDKARQIADEKQLEVAVFTFNESPQLTFQRYTDDLLLHITAPQRRCDLFKAYGTDQLYLTDFNSDFARTSSDDFITRYINRLKAQEIVVGFDYKFGHHRTDTDYLDRNFSGTVHVIEEQQSGGEKISSTRVRQLIREGNVKEANNLLGHEFSTRGIVVHGDARGRTIGFPTANLAPIDRTILPADGVYVADVVIDGKRYRSMTSLGKNVTFGGTELRLEANIFDFEGDIYGKTIEVFWLDYIRDMIKFNNIDELCDQLKADKKIAEKL,not soluble
22,MKVTVIGCYGGFPAANEATSGYLFQSGDYSLLVDCGSAVLSKLFGYVPAEKLDAVVLSHYHHDHIADIGPLQFAKQVGSFLGKGEHTLPIYGHDADIEQFQKLTYKTHTKGIAYQPDQPLTAGPFTITFLKTIHPVTCYAMRITDGSHTVVYTADSSYQDSFIPFSKDADLLISECNFYADQDGTSAGHMNSLEAGRIAKEAGAGELLLTHLPHFGVHDNLRKEAKTVFNGEVNIAKSGFVWEG,soluble
23,MKVVAAYLLAKLSGNENPSVADLKKIVESVGAEIDQEKIDLFFSLIKDRDVTELIAVGREKMAALSSGGGAVAVASGGGGGAAPAAEPASVESKKKEEEKEESEDDGGMMSLFD,soluble
